± gives the uncertainty stated by the source.
Experiment: self-splicing fitness, log relative to wild type (ln ratio); higher = more splicing; Tetrahymena group I intron in knt gene, E. coli kanamycin selection, DiMSum; sequences stand for … in CUCUCU…GGAGGGAAAAGUUAUCAGGCAUGCACCUGGUAGCUAGUCUUUAAACCAAUAGAUUGCAUCGGUUUAAAAGGCAAGACCGUCAAAUUGCGGGAAAGGGGUCAACAGCCGUUCAGUACCAAGUCUCAGGGGAAACUUUGAGAUGGCCUUGCAAAGGGUAUGGUAAUAAGCUGACGGACAUGGUCCUAACCACGCAGCCAAGUCCUAAGUCAACAGAUCUUCUGUUGAUAUGGAUGCAGUUCACAGACUAAAUGUCGGUCGGGGAAGAUGUAUUCUUCUCAUAAGAUAUAGUCGGACCUCUCCUUAAUGGGAGCUAGCGGAUGAAGUGAUGCAACACUGGAGCCGCUGGGAACUAAUUUGUAUGCGAAAGUAUAUUGAUUAGUUUUGGAGUACUCGUGGUCG
How it was run: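 Pooled colonies went to amplicon sequencing on an Illumina HiSeq 2500 after six replicate transformations. The plates were LB agar with 100 μg/mL carbenicillin, 50 μM IPTG and 0.2% rhamnose, with or without 25 μg/mL kanamycin, incubated overnight at 37°C or 30°C. The E. coli BL21(DE3) library had all eight P1ex-region intron nucleotides randomised, the intron placed in the knt kanamycin-resistance gene on pET-22b(+). DiMSum fitness is the error-weighted combination of replicate fold changes, kanamycin against none, normalised to wild type.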

Sequence | self-splicing fitness (ln) (30 °C) | self-splicing fitness (ln) (37 °C)
CAAUAGCAAUAUUACGUUGG | -1.9 ± 0.099 | -1.3 ± 0.11
CACAAGCAAUAUUACGAAGG | -1.45 ± 0.096 | -0.993 ± 0.12
CACAAGCAAUAUUACGAAUG | -1.79 ± 0.074 | -1.2 ± 0.073
CACAAGCAAUAUUACGACCU | -1.71 ± 0.19 | -2.1 ± 0.2
CACAAGCAAUAUUACGCCCA | -0.966 ± 0.091 | 0.114 ± 0.09
CACAAGCAAUAUUACGCGUA | -1.64 ± 0.072 | -0.625 ± 0.067
CACAAGCAAUAUUACGGAAG | -0.736 ± 0.055 | -0.887 ± 0.072
CACAAGCAAUAUUACGGGCA | -3.05 ± 0.14 | -1.39 ± 0.099
CACAAGCAAUAUUACGGUCC | -2.99 ± 0.32 | -1.99 ± 0.27
CACAAGCAAUAUUACGUAAC | -2.43 ± 0.095 | -0.662 ± 0.14
CACAAGCAAUAUUACGUACC | -3.9 ± 0.21 | -1.36 ± 0.14
CACAAGCAAUAUUACGUCGG | -0.785 ± 0.05 | -0.422 ± 0.063
CACAAGCAAUAUUACGUUCU | -2.84 ± 0.12 | -2.42 ± 0.12
CACAAGCAAUAUUACGUUGU | -3.81 ± 0.16 | -2.39 ± 0.13
CACCAGCAAUAUUACGAAAG | -0.231 ± 0.041 | -0.141 ± 0.064
CACCAGCAAUAUUACGAAAU | -4.11 ± 0.18 | -2.29 ± 0.16
CACCAGCAAUAUUACGAACU | -3.98 ± 0.2 | -2.05 ± 0.17
CACCAGCAAUAUUACGAGCA | -3.54 ± 0.16 | -1.55 ± 0.13
CACCAGCAAUAUUACGAUCA | -2.75 ± 0.15 | -1.43 ± 0.16
CACCAGCAAUAUUACGAUCG | -0.326 ± 0.059 | 0.608 ± 0.085
CACCAGCAAUAUUACGCAUA | -2.57 ± 0.12 | -1.27 ± 0.1

Sequence | self-splicing fitness (ln) (30 °C) | self-splicing fitness (ln) (37 °C)
CACCAGCAAUAUUACGCCAU | -3.39 ± 0.31 | -2.03 ± 0.29
CACCAGCAAUAUUACGCCGC | -3.35 ± 0.2 | -2.43 ± 0.29
CACCAGCAAUAUUACGCUCC | -3.91 ± 0.21 | -2.11 ± 0.33
CACCAGCAAUAUUACGGCCG | 0.194 ± 0.066 | 0.251 ± 0.087
CACCAGCAAUAUUACGGGGA | -1.7 ± 0.062 | -0.764 ± 0.067
CACCAGCAAUAUUACGGGUU | -1.82 ± 0.056 | -1.68 ± 0.081
CACCAGCAAUAUUACGGUAA | -1.18 ± 0.056 | -0.566 ± 0.061
CACCAGCAAUAUUACGGUAU | -2.42 ± 0.072 | -1.03 ± 0.067
CACCAGCAAUAUUACGGUUG | -2.85 ± 0.094 | -1.04 ± 0.11
CACCAGCAAUAUUACGUACG | 0.0448 ± 0.04 | 0.848 ± 0.062
CACCAGCAAUAUUACGUCAU | -4.12 ± 0.17 | -2.27 ± 0.14
CACCAGCAAUAUUACGUCCU | -3.31 ± 0.13 | -1.87 ± 0.14
CACCAGCAAUAUUACGUUGC | -3.93 ± 0.17 | -3.5 ± 0.24
CACGAGCAAUAUUACGAACA | – | -2.04 ± 0.47
CACGAGCAAUAUUACGAAUA | -2.08 ± 0.12 | -2.23 ± 0.16
CACGAGCAAUAUUACGACUU | -4.4 ± 0.34 | -0.766 ± 0.13
CACGAGCAAUAUUACGAGUU | -4.28 ± 0.18 | -2.2 ± 0.12
CACGAGCAAUAUUACGAUGG | -1.81 ± 0.096 | -1.45 ± 0.14
CACGAGCAAUAUUACGCAGA | – | -2.28 ± 0.26
CACGAGCAAUAUUACGCCGG | -3.41 ± 0.22 | -2.6 ± 0.3
CACGAGCAAUAUUACGCCUA | – | -2.24 ± 0.45

Sequence | self-splicing fitness (ln) (30 °C) | self-splicing fitness (ln) (37 °C)
CACGAGCAAUAUUACGCGCA | -3.24 ± 0.18 | -2.52 ± 0.14
CACGAGCAAUAUUACGGAUA | -2.98 ± 0.27 | -2.06 ± 0.24
CACGAGCAAUAUUACGGCAG | -1.03 ± 0.11 | -0.837 ± 0.14
CACGAGCAAUAUUACGGCCA | – | -2.79 ± 0.32
CACGAGCAAUAUUACGGCGU | -2.68 ± 0.21 | -2.53 ± 0.26
CACGAGCAAUAUUACGGCUA | -2.19 ± 0.22 | -1.41 ± 0.17
CACGAGCAAUAUUACGGGAG | -3.53 ± 0.21 | -2.37 ± 0.18
CACGAGCAAUAUUACGGGGA | -3.15 ± 0.12 | -2.51 ± 0.13
CACGAGCAAUAUUACGGUAU | -3.04 ± 0.23 | -2.25 ± 0.22
CACGAGCAAUAUUACGGUCC | -4.36 ± 0.28 | -3.16 ± 0.33
CACGAGCAAUAUUACGGUGU | -3.93 ± 0.22 | -2.33 ± 0.21
CACGAGCAAUAUUACGGUUA | -2.76 ± 0.17 | -2.48 ± 0.16
CACGAGCAAUAUUACGUCCC | -1.45 ± 0.25 | –
CACGAGCAAUAUUACGUCGC | -2.82 ± 0.33 | -2.69 ± 0.41
CACGAGCAAUAUUACGUGCU | -2.25 ± 0.12 | -2.99 ± 0.22
CACGAGCAAUAUUACGUGUU | -2.98 ± 0.1 | -2.26 ± 0.15
CACGAGCAAUAUUACGUUGA | -3.06 ± 0.17 | -2.47 ± 0.18
CACGAGCAAUAUUACGUUUA | -2.88 ± 0.18 | -2.52 ± 0.19
CACGAGCAAUAUUACGUUUC | -3.42 ± 0.17 | -2.42 ± 0.22
